For this experiment, the target named is fusion protein DBD-AppCt (GAL4 DBD fused to amino acids 650 to 695 of App) (Saccharomyces cerevisiae) (UniProt P04386). Description: cell-based or functional assay.

The results in this text go back to patent US20090005253A1, “Double Hybrid System Based on Gene Silencing by Transcriptional Interference” (AVENTIS PHARMA S.A., priority 2004, published 2009).

Some results are limits rather than exact numbers.

B1: fusion protein AD-Fe65 (GAL4 activation domain fused to amino acids 152 to 708 of Fe65) (protein)
chain: MDKAELIPEPPKKKRKVELGTAANFNQSGNIADSSLSFTFTNSSNGPNLITTQTNSQALSQPIASSNVHDNFMNNEITASKIDDGNNSKPLSPGWTDQTAYNAFGITTGMFNTTTMDDVYNYLFDDEDTPPNPKKEIEFKAAGEAEEEEEDDDDEEEEEDLSSPPGLPEPLESVEAPPRPQALTDGPREHSKSASLLFGMRNSAASDEDSSWATLSQGSPSYGSPEDTDSFWNPNAFETDSDLPAGWMRVQDTSGTYYWHIPTGTTQWEPPGRASPSQGSSPQEESQLTWTGFAHGEGFEDGEFWKDEPSDEAPMELGLKEPEEGTLTFPAQSLSPEPLPQEEEKLPPRNTNPGIKCFAVRSLGWVEMTEEELAPGRSSVAVNNCIRQLSYHKNNLHDPMSGGWGEGKDLLLQLEDETLKLVEPQSQALLHAQPIISIRVWGVGRDSGRDFAYVARDKLTQMLKCHVFRCEAPAKNIATSLHEICSKIMAERRNARCLVNGLSLDHSKLVDVPFQVEFPAPKNELVQKFQVYYLGNVPVAKPVGVDVINGALESVLSSSSREQWTPSHVSVAPATLTILHQQTEAVLGECRVRFLSFLAVGRDVHTFAFIMAAGPASFCCHMFWCEPNAASLSEAVQAACMLRYQKCLDARSQASTSCLPAPPAESVARRVGWTVRRGVQSLWGSLKPKRLGAHTP
B1 displayed a 3-AT concentration at which differences in cell growth are detected of over 15 mM and a growth of strain yRB49 (UI) plated on solid medium with 3-AT of 1 mM.
